“And” between values parts separate entries of the source, which are not always exact repeats. Equal entries are not always repeated. Where no end group is shown, it is not given here. cellulose membrane = derivatized cellulose membrane (SPOTs) solid support, attached to the peptide C-terminus
Experiments:
[1] = molecular target: T1, SEB (UniProt P01552 28-266); experiment: antigen-specific ELISA (subsequent study, data not shown)
T1 sequence: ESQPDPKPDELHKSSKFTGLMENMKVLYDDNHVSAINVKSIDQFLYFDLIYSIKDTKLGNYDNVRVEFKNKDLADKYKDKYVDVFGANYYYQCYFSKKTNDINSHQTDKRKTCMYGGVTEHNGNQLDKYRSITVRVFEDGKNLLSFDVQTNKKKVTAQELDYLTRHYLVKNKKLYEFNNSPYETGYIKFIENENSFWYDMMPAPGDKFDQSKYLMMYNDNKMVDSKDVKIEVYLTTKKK

[2] = molecular target: T2, human mesothelin (human, UniProt Q13421 296-598, limits assumed); experiment: as above
T2 construct: also called human Mesothilin

[3] = molecular target: T3, HEL (UniProt P00698 19-147); experiment: as above
[4] = molecular target: T4, hIL-1a (human, UniProt P01583 113-271); experiment: antigen panel ELISA, antigen coated on the plate, O.D. 450
T4 sequence (looked up): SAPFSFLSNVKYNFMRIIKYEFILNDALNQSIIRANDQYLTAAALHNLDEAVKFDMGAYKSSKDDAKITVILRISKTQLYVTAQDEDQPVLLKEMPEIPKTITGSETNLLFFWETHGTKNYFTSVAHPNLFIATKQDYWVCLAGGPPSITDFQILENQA

[5] = molecular target: T5, h IL-4 (human, UniProt P05112 25-153); experiment: as above
T5 sequence (looked up): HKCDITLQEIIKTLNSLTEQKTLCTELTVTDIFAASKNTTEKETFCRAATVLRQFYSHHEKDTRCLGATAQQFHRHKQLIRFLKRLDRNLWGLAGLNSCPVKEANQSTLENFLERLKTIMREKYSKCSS

[6] = molecular target: IL-6 (Homo sapiens (Human), UniProt P05231 30-212); experiment: as above
[7] = molecular target: T6, murine GM-CSF (murine, UniProt P01587 18-141); experiment: as above
T6 construct: also called mGM-CSF
T6 sequence (looked up): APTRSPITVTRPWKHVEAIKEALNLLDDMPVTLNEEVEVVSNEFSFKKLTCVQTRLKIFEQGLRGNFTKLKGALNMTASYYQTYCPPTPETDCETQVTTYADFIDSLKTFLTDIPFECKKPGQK

[8] = molecular target: h IL-2 (human, UniProt P60568 21-153); experiment: as above
[9] = molecular target: T7, h IL-3 (human, UniProt P08700 20-152); experiment: as above
T7 sequence (looked up): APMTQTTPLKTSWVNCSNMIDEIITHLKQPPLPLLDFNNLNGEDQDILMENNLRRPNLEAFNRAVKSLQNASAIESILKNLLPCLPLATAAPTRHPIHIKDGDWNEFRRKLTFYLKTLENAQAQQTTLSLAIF

[10] = molecular target: T8, BSA (bovine, UniProt P02769 25-607); experiment: as above
T8 construct: also called bovine serum albumin

[11] = molecular target: hIL-13 (human, UniProt P35225 35-146, limits assumed); experiment: as above
[12] = molecular target: T9, h IL-5 (human, UniProt P05113 20-134); experiment: as above
T9 sequence (looked up): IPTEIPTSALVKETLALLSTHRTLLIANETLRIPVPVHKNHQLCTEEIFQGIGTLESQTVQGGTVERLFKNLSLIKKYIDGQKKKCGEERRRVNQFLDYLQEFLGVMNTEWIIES

[13] = molecular target: T10, human granulocyte-macrophage colony stimulating factor (GM-CSF) (human, UniProt P04141 18-144); experiment: BIACORE
T10 construct: The assays used recombinant human GM-CSF (in-house, PeproTech, or PE-labeled from R&D Systems); also called hGM-CSF; human GM-CSF

[14] = molecular target: T11, human GM-CSF overlapping 12-mer peptide, SEQ ID NO:35 (human); experiment: SPOT peptide membrane probed with G9, HRP goat anti-human IgG, ECL
T11 construct: also called peptide #6
T11 peptide: ARRLLNLSRDTA-{cellulose membrane}

[15] = molecular target: T12, human GM-CSF overlapping 12-mer peptide, SEQ ID NO:36 (human); experiment: as above
T12 construct: also called peptide #13
T12 peptide: TRLELYKQGLRG-{cellulose membrane}

[16] = molecular target: T13, human GM-CSF overlapping 12-mer peptide, SEQ ID NO:38 (human); experiment: as above
T13 construct: also called peptide #15
T13 peptide: RGSLTKLKGPLT-{cellulose membrane}

[17] = molecular target: T14, human GM-CSF overlapping 12-mer peptide, SEQ ID NO:37 (human); experiment: as above
T14 construct: also called peptide #14
T14 peptide: YKQGLRGSLTKL-{cellulose membrane}

[18] = molecular target: T15, human GM-CSF overlapping 12-mer peptide #23; experiment: SPOTs peptide membrane, 1 mg/ml purified 10G9
T15 construct: Only 'possibly' recognized by G9
T15 peptide: KENLKDFLLVIP-{cellulose membrane}

[19] = molecular target: T1, SEB; experiment: antigen specific ELISA (subsequent study, data not shown)
[20] = molecular target: T2, human mesothelin; experiment: as above
[21] = molecular target: T3, HEL; experiment: as above
[22] = molecular target: T10, human granulocyte-macrophage colony …; experiment: apparent affinity, method not given

T10 sequence (P04141 18-144): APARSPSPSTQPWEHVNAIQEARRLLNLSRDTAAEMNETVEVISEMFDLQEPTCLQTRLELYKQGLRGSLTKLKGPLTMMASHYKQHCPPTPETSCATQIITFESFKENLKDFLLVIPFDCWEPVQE
T2 sequence (Q13421 other isoform, or with tags, fused parts or gaps limits assumed): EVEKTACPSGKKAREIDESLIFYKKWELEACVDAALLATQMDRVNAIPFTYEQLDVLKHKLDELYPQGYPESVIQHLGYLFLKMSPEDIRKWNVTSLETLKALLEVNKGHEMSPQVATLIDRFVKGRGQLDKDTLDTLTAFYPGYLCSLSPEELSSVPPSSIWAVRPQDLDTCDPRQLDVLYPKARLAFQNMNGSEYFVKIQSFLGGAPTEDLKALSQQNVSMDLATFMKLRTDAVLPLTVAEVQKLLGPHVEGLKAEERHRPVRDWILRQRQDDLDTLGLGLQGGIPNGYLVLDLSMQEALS
T3 sequence (P00698 19-147): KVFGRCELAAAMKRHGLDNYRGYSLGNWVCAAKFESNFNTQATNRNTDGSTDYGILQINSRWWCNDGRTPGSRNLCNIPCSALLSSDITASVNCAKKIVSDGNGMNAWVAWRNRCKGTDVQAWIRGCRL
T8 sequence (P02769 25-607 limits assumed): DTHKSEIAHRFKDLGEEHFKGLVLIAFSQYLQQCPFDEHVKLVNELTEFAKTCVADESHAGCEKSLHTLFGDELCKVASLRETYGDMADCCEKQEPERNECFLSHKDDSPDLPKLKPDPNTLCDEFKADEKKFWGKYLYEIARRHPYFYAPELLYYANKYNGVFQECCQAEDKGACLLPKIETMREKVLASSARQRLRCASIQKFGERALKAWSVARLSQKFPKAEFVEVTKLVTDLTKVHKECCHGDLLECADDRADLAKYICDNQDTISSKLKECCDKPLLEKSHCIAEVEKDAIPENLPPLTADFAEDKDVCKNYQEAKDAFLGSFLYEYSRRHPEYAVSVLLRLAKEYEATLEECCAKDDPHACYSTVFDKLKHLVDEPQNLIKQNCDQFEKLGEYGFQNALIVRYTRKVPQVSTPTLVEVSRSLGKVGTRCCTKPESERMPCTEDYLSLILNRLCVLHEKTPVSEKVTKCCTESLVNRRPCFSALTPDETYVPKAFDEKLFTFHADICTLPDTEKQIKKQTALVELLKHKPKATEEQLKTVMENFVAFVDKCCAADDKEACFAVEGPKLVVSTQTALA
Sequence of h IL-2 (P60568 21-153 limits assumed): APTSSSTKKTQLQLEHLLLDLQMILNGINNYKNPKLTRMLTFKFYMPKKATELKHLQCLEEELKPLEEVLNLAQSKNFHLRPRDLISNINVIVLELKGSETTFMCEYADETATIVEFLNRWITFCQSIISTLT
Sequence of hIL-13 (P35225 35-146 limits assumed): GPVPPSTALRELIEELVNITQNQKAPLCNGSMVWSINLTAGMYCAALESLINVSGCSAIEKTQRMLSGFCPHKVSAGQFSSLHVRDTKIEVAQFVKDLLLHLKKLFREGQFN

B1: anti-GM-CSF human IgG1 monoclonal antibody E10 (antibody, V domains shown)
VH: QVQLEESGGGVVQPGRSLRLSCAASGFTFTNYGMHWVRQAPGKGLEWLALISYDGNRQYYADSVKGRFTVSRDNPNNTLHLEMKSLRAEDSAIYYCARGAGVLLWFGDLSWFDPWGQGTLVTVSS
VL: DIQMTQSPSNLSASVGDRVTITCRASQNINTWLAWYQHKPGKPPKLRIYQASTLESGVPSRFSGSGSGTIFTLTISSLQPDDFGTYYCQQNNSYPYTFGQGTKLEINR
notes: Fully human IgG1 kappa made by a hybridoma from B cells of a PAP patient; also called 4E10; E10.20
[1]
  binding result: no binding
[2]
  binding result: no binding
[3]
  binding result: no binding
[4]
  binding result: no binding
[5]
  binding result: no binding
[6]
  binding result: no binding
[7]
  binding result: no binding
[8]
  binding result: no binding
[9]
  binding result: no binding
[10]
  binding result: no binding
[11]
  binding result: no binding
[12]
  binding result: no binding
[13]
  Kd: 870 pM and ~870 pM
  koff: 2.16e-05 s⁻¹
  kon: 24700 M⁻¹ s⁻¹

B2: anti-GM-CSF human IgG1 monoclonal antibody G9 (antibody, V domains shown)
VH: EVQLVESGGGLVQPGGSLRLSCAASGFTFSRHWMHWLRQVPGKGPVWVSRINGAGTSITYADSVRGRFTISRDNANNTLFLQMNSLRADDTALYFCARANSVWFRGLFDYWGQGTPVTVSS
VL: EIVLTQSPVTLSVSPGERVTLSCRASQSVSTNLAWYQQKLGQGPRLLIYGASTRATDIPARFSGSGSETEFTLTISSLQSEDFAVYYCQQYDKWPDTFGQGTKLEIKR
notes: Fully human IgG1 kappa made by a hybridoma from B cells of a PAP patient; also called 10G9; 10G9.1
[14]
  binding result: binds
[15]
  binding result: binds
[16]
  binding result: binds
[17]
  binding result: binds
[18]
  binding result: binds
[19]
  binding result: no binding
[20]
  binding result: no binding
[21]
  binding result: no binding
[22]
  Kd: 14 pM
[13]
  Kd: 0.0109 nM and 0.011 nM to 0.017 nM (2×)
  koff: 9.27e-05 s⁻¹
  kon: 8.47e+06 M⁻¹ s⁻¹

— patent publication US20080292641A1 (MORPHOTEK, published 2008)
